According to PMC5830916:

Tests used:
14-3-3 ε = 14-3-3 ε (UniProt P62258); assay: GFP-Trap co-IP, Myc immunoblot; conditions: reference: wild type
14-3-3 ζ = 14-3-3 ζ (UniProt P63104); assay: GFP-Trap co-IP, Myc immunoblot; conditions: reference: wild type

Row | binding against the reference (14-3-3 ε; sites S411) | binding against the reference (14-3-3 ζ; sites S411) | binding against the reference (14-3-3 ε; sites S395) | binding against the reference (14-3-3 ζ; sites S395) | Substance
1 | lost | lost | – | – | E2F7 (from UniProt Q6S7F2) S411A
2 | – | – | lost | lost | E2F8 (from UniProt Q58FA4) S395A
